From the supplement of paper PMC10126150
± gives the standard deviation of the averaged measurements.

System: ATP
Assay: switch fluorescence ratio, 500 uM ATP over buffer (Cy3 cluster intensity, sum of 5 cycles each) (fold (ratio)); higher = stronger signal-on switching upon ATP binding; sequences stand for … in TCGTCGGCAGCGTCAGATGTGTATAAGAGACAGTTTTTTTTTTTTTTTTTTTTTTTTT…TC
Settings: aptamer strand: ATP DNA aptamer (quencher-CACCTGGGGGAGTATTGCGGAGGAAGG + anchor), 100 nM annealed; ATP concentration: 500 uM
In short: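 The quencher-labelled ATP aptamer, at 100 nM, was annealed to Cy3-labelled switching-strand clusters on a modified Illumina MiSeq flow-cell. The clusters were imaged in selection buffer, then after 15 min with 500 uM ATP at 22 °C, and this buffer/ATP cycle ran five times with NaOH stripping and re-annealing between runs. Per-cluster fluorescence ratios, summed target-cycle over summed buffer-cycle Cy3 intensity, were averaged per switch-domain sequence. Clusters outside 100-1000 RFU were excluded.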
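Further: ATP exposure 15 min at 22 °C before imaging.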

GATGGAGGGA
switch fluorescence ratio: 1.01 ± 0.028

GATGGAGGTT
switch fluorescence ratio: 0.996 ± 0.055

GATGGATGAA
switch fluorescence ratio: 1.016 ± 0.0033

GATGGGAGGT
switch fluorescence ratio: 1.008 ± 0.0046

GATGGGATGG
switch fluorescence ratio: 0.993 ± 0.039

GATGGGCCGG
switch fluorescence ratio: 1 ± 0.039

GATGGGGAGT
switch fluorescence ratio: 0.9715 ± 0.0057

GATGGGGGCA
switch fluorescence ratio: 1 ± 0.086

GATGGGGGGT
switch fluorescence ratio: 1 ± 0.022

GATGGGGGTG
switch fluorescence ratio: 1.02 ± 0.053

GATGGGGTTC
switch fluorescence ratio: 1.01 ± 0.018

GATGGGTATA
switch fluorescence ratio: 1.0016 ± 0.00067

GATGGGTATG
switch fluorescence ratio: 0.995 ± 0.01

GATGGGTG
switch fluorescence ratio: 1.03 ± 0.082

GATGGTTAGA
switch fluorescence ratio: 0.998 ± 0.036

GATGGTTGAA
switch fluorescence ratio: 0.984 ± 0.021

GATGTAAAGC
switch fluorescence ratio: 1.02 ± 0.06

GATGTAAAGG
switch fluorescence ratio: 0.9891 ± 0.006

GATGTAACAA
switch fluorescence ratio: 0.998 ± 0.035

GATGTAATGT
switch fluorescence ratio: 1.0081 ± 0.00064

GATGTACAGA
switch fluorescence ratio: 1.13 ± 0.019

GATGTAGGTA
switch fluorescence ratio: 0.983 ± 0.038

GATGTATTAT
switch fluorescence ratio: 1.008 ± 0.0043

GATGTATTTT
switch fluorescence ratio: 0.9823 ± 0.004

GATGTCCACG
switch fluorescence ratio: 0.9874 ± 0.0051

GATGTCGGTC
switch fluorescence ratio: 0.9825 ± 0.0039

GATGTGAAAG
switch fluorescence ratio: 0.9638 ± 0.003

GATGTGATTA
switch fluorescence ratio: 0.982 ± 0.039

GATGTGCGTC
switch fluorescence ratio: 1.01 ± 0.023

GATGTTAAAC
switch fluorescence ratio: 1.06 ± 0.02

GATGTTCGAG
switch fluorescence ratio: 0.991 ± 0.011

GATGTTGCCG
switch fluorescence ratio: 1.05 ± 0.057

GATGTTGTGT
switch fluorescence ratio: 0.9802 ± 0.0091

GATGTTGTTT
switch fluorescence ratio: 1.03 ± 0.056

GATGTTTACT
switch fluorescence ratio: 1.0047 ± 0.00016

GATGTTTATG
switch fluorescence ratio: 0.975 ± 0.036

GATGTTTGTG
switch fluorescence ratio: 0.992 ± 0.045

GATGTTTTGG
switch fluorescence ratio: 0.986 ± 0.033

GATGTTTTTT
switch fluorescence ratio: 1.07 ± 0.14

GATTAAAAGT
switch fluorescence ratio: 0.969 ± 0.011

GATTAAACGG
switch fluorescence ratio: 1.04 ± 0.04

GATTAAAGCT
switch fluorescence ratio: 1.11 ± 0.039

GATTAAAGTT
switch fluorescence ratio: 1.02 ± 0.033

GATTAAATGT
switch fluorescence ratio: 0.992 ± 0.014

GATTAACCTA
switch fluorescence ratio: 1.013 ± 0.003

GATTAAGAGG
switch fluorescence ratio: 1.01 ± 0.039

GATTAAGGGC
switch fluorescence ratio: 1.0033 ± 6.6e-05

GATTAATTAC
switch fluorescence ratio: 1.06 ± 0.018

GATTACTCTG
switch fluorescence ratio: 1.03 ± 0.026

GATTAGACAC
switch fluorescence ratio: 1.013 ± 0.01

GATTAGCCGG
switch fluorescence ratio: 0.99 ± 0.015

GATTATATAG
switch fluorescence ratio: 0.957 ± 0.019

GATTATGATT
switch fluorescence ratio: 0.971 ± 0.013

GATTATGCGG
switch fluorescence ratio: 0.9849 ± 0.006

GATTCAAGAT
switch fluorescence ratio: 0.993 ± 0.03

GATTCATGGG
switch fluorescence ratio: 1.01 ± 0.0043

GATTCCATAG
switch fluorescence ratio: 1.06 ± 0.034

GATTCCGGAC
switch fluorescence ratio: 1.032 ± 0.0054

GATTCCGTTG
switch fluorescence ratio: 1.04 ± 0.016

GATTCGTATT
switch fluorescence ratio: 0.9757 ± 0.0047

GATTCTAGGG
switch fluorescence ratio: 0.9918 ± 0.0017

GATTCTGATT
switch fluorescence ratio: 0.9756 ± 0.0036

GATTGATGTT
switch fluorescence ratio: 1.013 ± 0.009

GATTGCAGTG
switch fluorescence ratio: 0.9786 ± 0.002

GATTGCATCG
switch fluorescence ratio: 0.9937 ± 0.0013

GATTGGAACG
switch fluorescence ratio: 0.976 ± 0.013

GATTGGACTA
switch fluorescence ratio: 1 ± 0.035

GATTGGGGAA
switch fluorescence ratio: 1.02 ± 0.013

GATTGGGGTA
switch fluorescence ratio: 0.978 ± 0.038

GATTGGTCTT
switch fluorescence ratio: 0.976 ± 0.03

GATTGTATCA
switch fluorescence ratio: 0.99 ± 0.014

GATTGTCTTA
switch fluorescence ratio: 0.979 ± 0.016

GATTGTGTTA
switch fluorescence ratio: 1.01 ± 0.043

GATTGTTGGG
switch fluorescence ratio: 0.984 ± 0.02

GATTGTTGTA
switch fluorescence ratio: 0.979 ± 0.014

GATTTAAACA
switch fluorescence ratio: 1.02 ± 0.029

GATTTAAGAG
switch fluorescence ratio: 0.988 ± 0.029

GATTTAAGGG
switch fluorescence ratio: 0.993 ± 0.018

GATTTAAGTG
switch fluorescence ratio: 1.018 ± 0.0065

GATTTAATTG
switch fluorescence ratio: 1.03 ± 0.09

GATTTAGGGG
switch fluorescence ratio: 0.961 ± 0.042

GATTTAGGTA
switch fluorescence ratio: 0.968 ± 0.027

GATTTATTGG
switch fluorescence ratio: 0.983 ± 0.032

GATTTATTTA
switch fluorescence ratio: 0.993 ± 0.015

GATTTCCCGC
switch fluorescence ratio: 1.26 ± 0.043

GATTTCGGCG
switch fluorescence ratio: 0.97 ± 0.03

GATTTGAGGC
switch fluorescence ratio: 0.987 ± 0.018

GATTTGATGA
switch fluorescence ratio: 0.9959 ± 0.002

GATTTGGACG
switch fluorescence ratio: 1.01 ± 0.028

GATTTGGAGG
switch fluorescence ratio: 0.97361 ± 7.9e-05

GATTTGGGCG
switch fluorescence ratio: 1.038 ± 0.0054

GATTTGGGGT
switch fluorescence ratio: 1 ± 0.033

GATTTGTAGG
switch fluorescence ratio: 1.01 ± 0.0069

GATTTTAATA
switch fluorescence ratio: 1.02 ± 0.016

GATTTTAGAC
switch fluorescence ratio: 0.995 ± 0.015

GATTTTCGCG
switch fluorescence ratio: 1.02 ± 0.037

GATTTTCGCT
switch fluorescence ratio: 0.971 ± 0.022

GATTTTCTTG
switch fluorescence ratio: 1.03 ± 0.017

GATTTTGGGG
switch fluorescence ratio: 1.01 ± 0.029

GATTTTGT
switch fluorescence ratio: 0.969 ± 0.037

GATTTTGTGC
switch fluorescence ratio: 1 ± 0.054

GATTTTTAGT
switch fluorescence ratio: 1.002 ± 0.0016

GATTTTTCGT
switch fluorescence ratio: 0.973 ± 0.01

GATTTTTGTG
switch fluorescence ratio: 0.992 ± 0.018

GCAAAAATGC
switch fluorescence ratio: 1.03 ± 0.031

GCAAAATAAA
switch fluorescence ratio: 1.05 ± 0.12

GCAAACGCAG
switch fluorescence ratio: 1.05 ± 0.032

GCAAACGGGG
switch fluorescence ratio: 1.07 ± 0.041

GCAAAGTGGG
switch fluorescence ratio: 0.9909 ± 0.0077

GCAAATTTTA
switch fluorescence ratio: 1.02 ± 0.015

GCAACATTCT
switch fluorescence ratio: 1.03 ± 0.022

GCAACCATTA
switch fluorescence ratio: 1.03 ± 0.018

GCAAGAATTT
switch fluorescence ratio: 0.982 ± 0.046

GCAAGACGTT
switch fluorescence ratio: 1.51 ± 0.045

GCAAGATGAT
switch fluorescence ratio: 1.17 ± 0.17

GCAAGATTGA
switch fluorescence ratio: 0.999 ± 0.044

GCAAGCAAGA
switch fluorescence ratio: 1.18 ± 0.067

GCAAGCTAGG
switch fluorescence ratio: 1.03 ± 0.017

GCAAGGGGGG
switch fluorescence ratio: 1.09 ± 0.081

GCAAGGTTAT
switch fluorescence ratio: 1.01 ± 0.018

GCAAGTAGTT
switch fluorescence ratio: 1.03 ± 0.053

GCAAGTTTGC
switch fluorescence ratio: 1.04 ± 0.042

GCAATAGGGT
switch fluorescence ratio: 1.37 ± 0.037

GCAATAGTGG
switch fluorescence ratio: 1.25 ± 0.025

GCAATCGTGG
switch fluorescence ratio: 1.035 ± 0.0042

GCAATTGTTG
switch fluorescence ratio: 1.021 ± 0.01

GCACAATTAG
switch fluorescence ratio: 1.04 ± 0.0071

GCACCAGGGG
switch fluorescence ratio: 1.81 ± 0.81

GCACCTTGAG
switch fluorescence ratio: 1.001 ± 0.0014

GCACGAATGC
switch fluorescence ratio: 1.06 ± 0.025

GCACGCGTGC
switch fluorescence ratio: 1.01 ± 0.044

GCACGGGGCA
switch fluorescence ratio: 1.01 ± 0.023

GCACGGGGGG
switch fluorescence ratio: 1.03 ± 0.0077

GCACTCTGGG
switch fluorescence ratio: 0.995 ± 0.029

GCACTGGGGC
switch fluorescence ratio: 1.01 ± 0.023

GCACTGTGGC
switch fluorescence ratio: 0.992 ± 0.032

GCACTTGTAA
switch fluorescence ratio: 1.005 ± 0.0056

GCAGAATGGG
switch fluorescence ratio: 1.08 ± 0.12

GCAGAGGGGT
switch fluorescence ratio: 1.04 ± 0.066

GCAGATAGGG
switch fluorescence ratio: 0.998 ± 0.016

GCAGCCGTGT
switch fluorescence ratio: 1.03 ± 0.04

GCAGCGGGGG
switch fluorescence ratio: 1.01 ± 0.027

GCAGCTTTTA
switch fluorescence ratio: 1.09 ± 0.018

GCAGGAGATT
switch fluorescence ratio: 1.01 ± 0.032

GCAGGAGTAG
switch fluorescence ratio: 1.01 ± 0.038

GCAGGCCCGA
switch fluorescence ratio: 1.009 ± 0.0034

GCAGGCTTGG
switch fluorescence ratio: 1.012 ± 0.0061

GCAGGGGGTG
switch fluorescence ratio: 1.11 ± 0.076

GCAGGTAGGG
switch fluorescence ratio: 0.998 ± 0.039

GCAGGTCTGT
switch fluorescence ratio: 0.9688 ± 0.0037

GCAGGTGAGG
switch fluorescence ratio: 1.18 ± 0.044

GCAGGTGGAG
switch fluorescence ratio: 1.02 ± 0.06

GCAGGTGGCG
switch fluorescence ratio: 1.01 ± 0.044

GCAGGTTCGG
switch fluorescence ratio: 1.01 ± 0.037

GCAGGTTGGT
switch fluorescence ratio: 1.036 ± 0.0042

GCAGTAGTTG
switch fluorescence ratio: 1.01 ± 0.026

GCAGTATGAG
switch fluorescence ratio: 0.99 ± 0.021
